# Experimental data taken from paper PMC4942255, “MutSα maintains the mismatch repair capability by inhibiting PCNA unloading”.
# B1: 42 bp A:C mismatch oligo DNA (dsDNA)
# DNA 1: GGGTGACCGTACTGCATCTCGAGATCCATGTTACTGCGTCAG
# DNA 2: CTGACGCAGTAACATGGATCCCGAGATGCAGTACGGTCACCC
# Experiments:
# Assay in all cases: SPR; no nucleotide or Mg2+ listed in running buffer; n = 2; SPR (BIACORE 3000): 20 mM Hepes-NaOH pH 7.5, 100 mM NaCl, 1 mM DTT, 0.005% Tween-20; 20 μl/min, 3 min association and 3 min dissociation; temperature not stated
# Conditions in all cases: protein: recombinant; tags: C-terminal FLAG on xMsh6; copies: 1;1; label: 3' biotin on strand 1; blunt, A:C mismatch (A at strand 1 position 22, C in strand 2)
# [1] = molecular target: xMutSα WT (xMsh2-xMsh6-FLAG) (Xenopus laevis, UniProt A0A1B4WRB1;A0A1B4WRB2 1-932;1-1340)
# [2] = molecular target: xMutSα ΔN (xMsh2-xMsh6ΔN-FLAG) (Xenopus laevis, UniProt A0A1B4WRB1;A0A1B4WRB2 1-932;=M+324-1340, internal_change)
# [3] = molecular target: xMutSα PIP (xMsh2-xMsh6PIP-FLAG) (Xenopus laevis, UniProt A0A1B4WRB1;A0A1B4WRB2 1-932;1-1340, Q4A;F10A;F11A)
# Chain of xMutSα PIP (xMsh2-xMsh6PIP-FLAG) (chain, as listed by the source Q4A;F10A;F11A, chain 1 of 2): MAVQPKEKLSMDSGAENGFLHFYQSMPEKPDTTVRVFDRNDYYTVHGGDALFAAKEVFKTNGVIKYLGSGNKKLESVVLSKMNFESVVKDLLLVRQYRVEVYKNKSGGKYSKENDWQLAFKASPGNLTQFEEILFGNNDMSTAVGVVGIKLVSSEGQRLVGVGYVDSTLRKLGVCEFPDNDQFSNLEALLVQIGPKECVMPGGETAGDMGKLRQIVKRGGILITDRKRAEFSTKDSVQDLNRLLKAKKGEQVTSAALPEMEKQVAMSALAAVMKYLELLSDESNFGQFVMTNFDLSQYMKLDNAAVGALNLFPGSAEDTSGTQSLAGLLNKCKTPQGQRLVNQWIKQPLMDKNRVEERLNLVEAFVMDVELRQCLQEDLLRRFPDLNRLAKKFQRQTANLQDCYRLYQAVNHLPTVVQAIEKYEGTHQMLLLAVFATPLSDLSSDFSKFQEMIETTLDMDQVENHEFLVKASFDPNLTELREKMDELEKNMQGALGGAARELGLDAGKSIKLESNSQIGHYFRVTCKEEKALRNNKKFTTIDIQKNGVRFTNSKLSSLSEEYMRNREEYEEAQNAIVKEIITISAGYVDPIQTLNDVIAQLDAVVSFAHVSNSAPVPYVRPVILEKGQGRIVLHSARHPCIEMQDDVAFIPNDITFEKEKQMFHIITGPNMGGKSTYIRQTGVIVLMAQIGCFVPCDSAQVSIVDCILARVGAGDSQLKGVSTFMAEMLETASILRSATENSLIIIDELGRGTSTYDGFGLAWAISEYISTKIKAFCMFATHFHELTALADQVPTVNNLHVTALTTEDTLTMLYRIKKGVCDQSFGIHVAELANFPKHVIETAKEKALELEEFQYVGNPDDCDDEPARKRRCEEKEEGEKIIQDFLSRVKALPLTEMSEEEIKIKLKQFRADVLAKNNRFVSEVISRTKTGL
# Chain of xMutSα PIP (xMsh2-xMsh6PIP-FLAG) (chain, as listed by the source Q4A;F10A;F11A, chain 2 of 2): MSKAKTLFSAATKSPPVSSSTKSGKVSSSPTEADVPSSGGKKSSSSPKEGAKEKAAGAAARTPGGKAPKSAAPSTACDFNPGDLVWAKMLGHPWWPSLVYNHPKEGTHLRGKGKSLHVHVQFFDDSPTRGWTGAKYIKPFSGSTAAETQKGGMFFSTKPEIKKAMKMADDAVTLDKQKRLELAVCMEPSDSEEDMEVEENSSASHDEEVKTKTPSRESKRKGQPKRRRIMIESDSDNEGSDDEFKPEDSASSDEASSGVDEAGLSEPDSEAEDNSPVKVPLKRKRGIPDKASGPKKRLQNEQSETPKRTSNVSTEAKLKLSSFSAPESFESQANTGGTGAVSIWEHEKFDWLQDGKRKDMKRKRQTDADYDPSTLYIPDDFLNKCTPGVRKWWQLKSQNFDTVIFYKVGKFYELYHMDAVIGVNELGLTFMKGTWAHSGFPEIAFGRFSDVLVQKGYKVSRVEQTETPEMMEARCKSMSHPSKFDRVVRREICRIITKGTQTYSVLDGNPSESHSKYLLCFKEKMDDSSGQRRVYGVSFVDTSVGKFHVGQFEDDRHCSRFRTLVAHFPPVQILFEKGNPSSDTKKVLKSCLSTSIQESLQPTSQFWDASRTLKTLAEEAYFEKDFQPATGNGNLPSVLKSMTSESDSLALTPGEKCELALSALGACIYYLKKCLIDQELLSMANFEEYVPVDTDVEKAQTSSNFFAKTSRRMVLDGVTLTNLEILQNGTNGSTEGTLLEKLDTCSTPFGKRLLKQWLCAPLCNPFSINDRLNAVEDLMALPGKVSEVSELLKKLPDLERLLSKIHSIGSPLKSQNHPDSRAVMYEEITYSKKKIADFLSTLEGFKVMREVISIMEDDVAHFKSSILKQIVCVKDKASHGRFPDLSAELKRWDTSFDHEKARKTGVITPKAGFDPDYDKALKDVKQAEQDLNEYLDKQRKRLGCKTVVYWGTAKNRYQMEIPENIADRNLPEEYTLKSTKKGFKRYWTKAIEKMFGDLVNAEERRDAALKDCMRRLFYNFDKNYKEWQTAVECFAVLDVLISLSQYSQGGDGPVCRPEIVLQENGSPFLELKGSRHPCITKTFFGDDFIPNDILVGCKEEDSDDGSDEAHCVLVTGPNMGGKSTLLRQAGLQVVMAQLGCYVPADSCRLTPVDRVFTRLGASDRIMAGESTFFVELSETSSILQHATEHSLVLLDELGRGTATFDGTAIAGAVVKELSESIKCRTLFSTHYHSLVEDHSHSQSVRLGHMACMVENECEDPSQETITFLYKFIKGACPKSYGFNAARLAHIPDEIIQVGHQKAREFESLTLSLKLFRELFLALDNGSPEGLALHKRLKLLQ
# Chain of xMutSα ΔN (xMsh2-xMsh6ΔN-FLAG) (chain, as listed by the source | mutant, chain 1 of 2): as the sequence (chain, as listed by the source Q4A;F10A;F11A, chain 1 of 2) above
# Chain of xMutSα ΔN (xMsh2-xMsh6ΔN-FLAG) (chain, as listed by the source | mutant, chain 2 of 2): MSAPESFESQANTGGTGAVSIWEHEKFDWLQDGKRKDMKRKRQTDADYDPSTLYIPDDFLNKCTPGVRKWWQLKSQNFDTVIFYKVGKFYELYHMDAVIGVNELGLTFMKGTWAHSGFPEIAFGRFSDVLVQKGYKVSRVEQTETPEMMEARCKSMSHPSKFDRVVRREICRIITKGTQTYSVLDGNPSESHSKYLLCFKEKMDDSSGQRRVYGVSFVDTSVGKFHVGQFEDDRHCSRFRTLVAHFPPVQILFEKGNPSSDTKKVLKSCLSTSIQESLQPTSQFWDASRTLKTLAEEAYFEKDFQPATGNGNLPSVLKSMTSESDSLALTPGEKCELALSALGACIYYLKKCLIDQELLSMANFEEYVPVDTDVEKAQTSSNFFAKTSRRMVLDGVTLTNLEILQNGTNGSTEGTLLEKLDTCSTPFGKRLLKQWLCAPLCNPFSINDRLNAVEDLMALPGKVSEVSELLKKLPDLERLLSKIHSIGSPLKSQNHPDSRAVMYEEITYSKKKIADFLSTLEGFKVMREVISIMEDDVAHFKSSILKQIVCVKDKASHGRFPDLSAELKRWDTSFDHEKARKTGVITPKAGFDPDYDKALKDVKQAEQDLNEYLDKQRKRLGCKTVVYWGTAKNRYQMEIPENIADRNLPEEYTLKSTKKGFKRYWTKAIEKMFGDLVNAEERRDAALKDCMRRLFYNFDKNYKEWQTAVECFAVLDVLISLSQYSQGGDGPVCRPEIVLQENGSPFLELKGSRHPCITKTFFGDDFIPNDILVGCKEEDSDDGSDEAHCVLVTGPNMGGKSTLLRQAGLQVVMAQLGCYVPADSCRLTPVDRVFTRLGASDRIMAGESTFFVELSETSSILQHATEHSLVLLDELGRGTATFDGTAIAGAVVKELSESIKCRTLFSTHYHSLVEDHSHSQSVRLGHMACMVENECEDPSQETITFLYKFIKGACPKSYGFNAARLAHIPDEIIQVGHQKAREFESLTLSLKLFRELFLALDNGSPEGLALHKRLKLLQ
binder,measurement,setting,value
B1,Kd,[1],2.2 nM
same,Kd,[2],3.6 nM
same,Kd,[3],4.4 nM
